The target of this test is GST. The experiment in a line: photo-crosslinking of 7 mg/ml GST with 1 mM aziethyl glutathione (337 nm, 30 minutes), whole-protein LCMS.

Consider one substance from patent US20220054955A1.

Substance aziethyl glutathione gave a percent of GST molecules covalently crosslinked of 40%.
